# Literature values in PMC5488749.
# Read-outs that look alike come from different tables or passages of the source.
# Tests used:
# [1] = biological target: neurexin1 C-terminal peptide (Homo sapiens) (UniProt Q9ULB1)
# [2] = biological target: Caspr4 C-terminal peptide (Homo sapiens) (UniProt Q9C0A0)
# [3] = biological target: neurexin1 C-terminal peptide (Homo sapiens) (UniProt Q9ULB1); remark: listed apart in the source
# [4] = biological target: Caspr4 C-terminal peptide (Homo sapiens) (UniProt Q9C0A0); remark: listed apart in the source
# UniProt Q9C0A0, sequence (Q9C0A0 whole entry, looked up, tested part not stated): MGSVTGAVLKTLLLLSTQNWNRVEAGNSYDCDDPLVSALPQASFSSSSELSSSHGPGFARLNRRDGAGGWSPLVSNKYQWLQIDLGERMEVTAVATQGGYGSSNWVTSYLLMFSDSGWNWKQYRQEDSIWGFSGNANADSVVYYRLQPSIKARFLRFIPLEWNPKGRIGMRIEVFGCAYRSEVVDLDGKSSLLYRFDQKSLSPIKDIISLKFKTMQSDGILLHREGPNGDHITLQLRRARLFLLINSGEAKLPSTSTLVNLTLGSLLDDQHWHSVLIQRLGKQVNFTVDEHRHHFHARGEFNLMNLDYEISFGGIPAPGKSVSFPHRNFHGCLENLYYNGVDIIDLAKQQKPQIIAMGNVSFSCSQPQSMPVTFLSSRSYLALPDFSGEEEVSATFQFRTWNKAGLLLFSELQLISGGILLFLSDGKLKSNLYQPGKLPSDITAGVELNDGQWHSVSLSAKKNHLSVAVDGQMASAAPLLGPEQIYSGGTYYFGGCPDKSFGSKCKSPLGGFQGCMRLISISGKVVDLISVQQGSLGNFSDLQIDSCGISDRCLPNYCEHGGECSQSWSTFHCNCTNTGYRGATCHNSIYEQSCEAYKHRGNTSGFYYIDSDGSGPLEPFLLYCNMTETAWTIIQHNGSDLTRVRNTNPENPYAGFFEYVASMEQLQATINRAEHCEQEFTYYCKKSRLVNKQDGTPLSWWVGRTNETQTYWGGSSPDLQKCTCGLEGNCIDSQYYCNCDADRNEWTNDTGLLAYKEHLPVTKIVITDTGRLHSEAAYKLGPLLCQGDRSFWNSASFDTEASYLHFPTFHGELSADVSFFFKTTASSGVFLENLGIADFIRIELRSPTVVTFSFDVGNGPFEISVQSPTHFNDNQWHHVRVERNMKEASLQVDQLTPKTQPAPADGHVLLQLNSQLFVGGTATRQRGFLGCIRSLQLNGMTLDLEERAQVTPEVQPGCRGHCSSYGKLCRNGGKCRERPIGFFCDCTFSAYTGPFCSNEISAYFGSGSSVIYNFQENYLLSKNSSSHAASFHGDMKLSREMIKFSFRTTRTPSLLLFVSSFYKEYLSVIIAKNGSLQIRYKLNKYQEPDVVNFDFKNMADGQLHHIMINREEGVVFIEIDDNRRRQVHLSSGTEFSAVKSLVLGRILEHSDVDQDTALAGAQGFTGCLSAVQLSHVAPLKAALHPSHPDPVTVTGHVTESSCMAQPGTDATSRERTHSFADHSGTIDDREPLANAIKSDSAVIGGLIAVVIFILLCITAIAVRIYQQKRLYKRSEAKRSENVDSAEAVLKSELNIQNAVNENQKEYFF
# UniProt Q9ULB1, sequence (Q9ULB1 whole entry, looked up, tested part not stated): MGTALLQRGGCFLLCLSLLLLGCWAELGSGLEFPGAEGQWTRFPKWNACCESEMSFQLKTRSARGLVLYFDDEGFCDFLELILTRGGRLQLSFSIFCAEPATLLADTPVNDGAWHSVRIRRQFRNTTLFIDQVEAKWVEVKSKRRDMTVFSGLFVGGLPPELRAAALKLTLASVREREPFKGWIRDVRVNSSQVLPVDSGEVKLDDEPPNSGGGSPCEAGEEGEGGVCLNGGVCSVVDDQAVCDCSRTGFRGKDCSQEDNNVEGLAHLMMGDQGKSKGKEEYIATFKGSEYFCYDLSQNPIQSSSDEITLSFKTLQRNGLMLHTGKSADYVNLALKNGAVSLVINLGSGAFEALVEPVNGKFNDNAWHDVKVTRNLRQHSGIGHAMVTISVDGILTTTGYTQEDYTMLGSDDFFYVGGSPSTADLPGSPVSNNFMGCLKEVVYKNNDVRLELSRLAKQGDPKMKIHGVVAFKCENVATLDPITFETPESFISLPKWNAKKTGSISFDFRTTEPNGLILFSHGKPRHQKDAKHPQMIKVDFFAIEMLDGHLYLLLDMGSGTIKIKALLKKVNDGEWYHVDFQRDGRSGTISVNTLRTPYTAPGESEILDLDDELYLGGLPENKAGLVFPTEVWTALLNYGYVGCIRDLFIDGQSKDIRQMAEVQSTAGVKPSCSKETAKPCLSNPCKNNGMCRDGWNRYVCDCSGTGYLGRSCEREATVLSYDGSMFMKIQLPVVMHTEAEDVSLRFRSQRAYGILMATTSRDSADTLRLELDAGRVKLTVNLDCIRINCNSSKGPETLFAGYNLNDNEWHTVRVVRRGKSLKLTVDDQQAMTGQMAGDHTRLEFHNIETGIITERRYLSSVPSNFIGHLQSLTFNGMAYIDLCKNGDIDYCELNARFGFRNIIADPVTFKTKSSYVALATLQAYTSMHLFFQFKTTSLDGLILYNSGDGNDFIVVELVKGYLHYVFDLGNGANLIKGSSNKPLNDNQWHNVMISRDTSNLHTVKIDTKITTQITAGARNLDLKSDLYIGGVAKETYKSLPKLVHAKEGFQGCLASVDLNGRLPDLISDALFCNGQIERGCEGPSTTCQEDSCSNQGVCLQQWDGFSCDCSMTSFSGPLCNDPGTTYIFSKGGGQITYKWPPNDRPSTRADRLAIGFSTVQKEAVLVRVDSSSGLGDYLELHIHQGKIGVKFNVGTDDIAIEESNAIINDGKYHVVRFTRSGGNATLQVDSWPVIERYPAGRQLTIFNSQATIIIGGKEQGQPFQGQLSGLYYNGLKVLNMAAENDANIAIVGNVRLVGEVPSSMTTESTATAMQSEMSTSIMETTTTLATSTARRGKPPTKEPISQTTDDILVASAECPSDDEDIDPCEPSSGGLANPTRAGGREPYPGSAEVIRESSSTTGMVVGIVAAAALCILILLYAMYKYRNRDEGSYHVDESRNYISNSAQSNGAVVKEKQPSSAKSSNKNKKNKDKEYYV
Kd [1] [µM],Kd [2] [µM],Kd [3] [µM],Kd [4] [µM],Substance
2400,18,,,Tiam1 PDZ (from UniProt Q13009)
,,5,3,Tiam2 PDZ (from UniProt Q8IVF5)
